Assay results: patent publication US20030104981A1, “Human insulin analogues” (priority 1995, published 2003)

Tests used:
[1] = molecular target: insulin-degrading enzyme (IDE); experiment: cell-based or functional assay
[2] = molecular target: insulin receptor in the LB lymphoma cell; experiment: competition with native insulin for insulin receptors on LB lymphoma cells
Sequence of insulin receptor in the LB lymphoma cell (P15208 28-748, chain 1 of 2): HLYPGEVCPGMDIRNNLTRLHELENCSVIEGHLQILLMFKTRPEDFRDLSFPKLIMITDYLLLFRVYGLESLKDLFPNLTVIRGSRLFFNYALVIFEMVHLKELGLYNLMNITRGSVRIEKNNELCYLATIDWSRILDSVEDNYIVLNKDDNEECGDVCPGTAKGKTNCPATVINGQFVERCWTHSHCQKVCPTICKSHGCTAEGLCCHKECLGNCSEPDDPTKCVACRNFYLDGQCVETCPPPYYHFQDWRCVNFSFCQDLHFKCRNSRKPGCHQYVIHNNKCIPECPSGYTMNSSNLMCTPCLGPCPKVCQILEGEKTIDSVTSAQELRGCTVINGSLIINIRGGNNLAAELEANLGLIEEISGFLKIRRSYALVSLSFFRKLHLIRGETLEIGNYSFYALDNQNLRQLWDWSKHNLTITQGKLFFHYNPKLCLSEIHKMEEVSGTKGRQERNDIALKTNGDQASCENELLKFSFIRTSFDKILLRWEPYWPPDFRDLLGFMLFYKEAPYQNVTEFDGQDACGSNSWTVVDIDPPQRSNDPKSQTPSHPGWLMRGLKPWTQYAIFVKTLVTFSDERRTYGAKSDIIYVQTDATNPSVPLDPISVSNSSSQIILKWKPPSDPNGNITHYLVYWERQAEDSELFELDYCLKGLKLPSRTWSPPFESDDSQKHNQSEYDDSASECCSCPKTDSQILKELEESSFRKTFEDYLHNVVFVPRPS
Sequence of insulin receptor in the LB lymphoma cell (P15208 753-1372, chain 2 of 2): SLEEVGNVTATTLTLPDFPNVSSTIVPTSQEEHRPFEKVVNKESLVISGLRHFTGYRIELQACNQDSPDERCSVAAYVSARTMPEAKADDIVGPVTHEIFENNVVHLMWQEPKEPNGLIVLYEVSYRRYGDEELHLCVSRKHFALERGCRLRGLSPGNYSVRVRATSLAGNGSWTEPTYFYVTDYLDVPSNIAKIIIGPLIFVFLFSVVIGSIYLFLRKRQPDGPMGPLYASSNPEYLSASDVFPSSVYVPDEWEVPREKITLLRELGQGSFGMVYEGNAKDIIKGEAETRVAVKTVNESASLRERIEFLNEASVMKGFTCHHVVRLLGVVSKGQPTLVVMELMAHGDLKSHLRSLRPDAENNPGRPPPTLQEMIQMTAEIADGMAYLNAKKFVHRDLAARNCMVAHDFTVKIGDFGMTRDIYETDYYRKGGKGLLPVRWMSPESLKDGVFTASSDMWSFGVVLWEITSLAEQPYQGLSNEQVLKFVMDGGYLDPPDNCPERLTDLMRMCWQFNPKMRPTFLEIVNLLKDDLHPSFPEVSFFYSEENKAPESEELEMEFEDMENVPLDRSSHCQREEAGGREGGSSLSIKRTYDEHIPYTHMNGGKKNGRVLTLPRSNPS

^125I A14 mono-iodo porcine insulin (from UniProt P01315 25-54) (ligand)
TCA assay analysis of degradation, 10 minutes incubation [1]: 25.9%
TCA assay analysis of degradation, 20 minutes incubation [1]: 66.8%
TCA solubility after 15 minutes of incubation, IDE dilution 1:30 [1]: 22.5%

des-(B26-B30)-[Glu-B10; Ser-B17; Tyr-B25-NH2] Radoyka I human insulin analogue (ligand)
binding affinity as percent of native insulin [2]: 20%
times less binding affinity than native insulin [2]: 5 times

des-(B26-B30)-[Glu-B10; Thr-B14; Ser-B17; Tyr-B25-NH2] Radoyka II human insulin analogue (ligand)
stability from insulin-degrading enzyme against ^125I A14 porcine insulin (TCA precipitation or HPLC assay) [1]: 4.5 times
binding affinity as percent of native insulin [2]: 10%
times less binding affinity than native insulin [2]: 10 times
